Test results taken from paper PMC9818519.

Molecular target: His-HAT1 (Homo sapiens) (UniProt O14929)
Assay: ELONA
Conditions: ELONA: PBS + 1 mM MgCl2 (selection buffer), 37 °C, 1 h; 100 ng HAT1/well adsorbed; 0.2% BSA block; aptamers heated 95 °C 10 min then ice 10 min

Chain of UniProt O14929 (O14929 whole entry): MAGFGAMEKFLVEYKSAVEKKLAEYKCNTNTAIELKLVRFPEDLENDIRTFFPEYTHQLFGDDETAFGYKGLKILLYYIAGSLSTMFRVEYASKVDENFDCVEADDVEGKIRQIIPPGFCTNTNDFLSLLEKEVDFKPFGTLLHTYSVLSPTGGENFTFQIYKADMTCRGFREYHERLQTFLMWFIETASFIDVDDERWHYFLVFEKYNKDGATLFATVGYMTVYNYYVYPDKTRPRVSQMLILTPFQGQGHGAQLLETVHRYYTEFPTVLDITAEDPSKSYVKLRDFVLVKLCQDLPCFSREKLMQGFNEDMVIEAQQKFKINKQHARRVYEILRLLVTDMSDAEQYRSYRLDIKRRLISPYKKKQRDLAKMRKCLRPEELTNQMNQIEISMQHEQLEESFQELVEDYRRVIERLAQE

Sequence	Kd
GTTGCTCGTATTTAGGGCGGGGGGGCGGGGGAGGAGGTGGCGGGAATATCCATTGTCTACACCAGTCTTCATCCGC [apHAT610 (610R)]	28.1 nM
GCGGATGAAGACTGGTGTCGAGGGGGGGGCGGGCGGGTGGGTTGGCTCTTCATGCCTGTGCCC [apHAT63T]	43.7 nM
GCGGATGAAGACTGGTGTCGAGGGGGGGGCGGGCGGGTGGGTTGGCTCTTCATGCCTGTGCCCTAAATACGAGCAAC [apHAT63 (63F)]	38 nM
